Measured values taken from the domain aggregation screens of Martell et al. (2025).

test: soluble fraction after stress (log2 fold change); higher = more stays soluble; pooled small domains, quantitative proteomics; details: stress: 50 degC
In short: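 Each library was heated to 50°C as a stress step. The libraries, made up of small protein domains, were pooled and analysed at high throughput by quantitative proteomics. The reported value is the base-two logarithm of the fold change in each protein's soluble amount after stress, taken as a measure of aggregation propensity. The higher the value, the more protein stays in solution.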

Sequence	soluble fraction (log2)
HMLKEKETRALANFTNKFFGLDISEDLKPIALSELSKFKKTHKISNLEEFINSFQYDFQNEKILSLLDIFL	-0.994
HMSPSQFRSKSLLVEINFASRQMDGEILQGDYAGKRLSELTEAEVQELTAWLKQSDRESFVLLQAYLLRSG	-0.881
HMGVTDLFAVLGFPRSPWLDAEELKQRHHALMADEASANSSPTILNEARRTLQNPALRIRHFLALEFPDH	-0.397
HMYPGQILEIYLDEIKRLYLNGLSSADIFAEIKEGSIPSVKKAIRSMKDGSAPVKITEAEESTRIAPS	-0.441
HMLPIGSSREQVISSLNKMHQDYKEEGNFIYAGYFKQGLPLVPSPRISIALQFNETAHLEKIDATLNYV	-0.305
HMLPVLEIGTMIRIIRQPHFGTIARVVALPEELTKVESETLVRILDAEFDDGTRVRIPRANVEVIE	-1.25
HMAPDYYALLGVPRNATTAEVRKAFRGKALEQHPDRGGDEESFRLLSKAYDVLSDSERRKYYDRTG	0.0767
HMGITPSIEMILEYFAFKESSETEANKFFNYYSSIGWLVGGKTKMKDWKASARNWIMNQNKFQ	-3.97
HMYIDLHEIWKSLTDEEQTVVKLLETEPAHVDTLIENSQIPASRILATLTLLEVRGIVKRLPGRMFSLAD	-1.45
HMSELDASYLGQRVRYVSGFTETDPSEGLVEFRGSNWRARAEHPPLDHSGHWVIVKVESNTLWVEEKSN	-0.22
HMLENSLDHIEGIGPKTKDTLLTYFKSVSKIKSANPSILAELIGAAKTKILLAAFEKEKTTS	-0.017
HMELLPAERRQQLVDWFKSNQAGTSQDLARMFGISVSTIRRDLDLLASEGLVKRTHGGAVSIR	0.0027
HMRSLATFEEEKIALRFWNYLQSEGIKSTLEEEGPRDWVIWVIDEEKIPSATQSLEKFNLNPDDPAFSN	-0.438
HMKNISSEEDREKALSLGITQEFIDNKGRYFITVPNKPSNFKEQALNIQKEISEQIDTVINKRFEF	-0.0173
HMYITGAVIRKLREKNNITQLQLAERLRVSDKTISKWETGKGYPDITLLEPIAKTFSVSVTELISGDI	-1.32
HMGEAIPVPDLKHKALTDAEHLVHELGLEIQVVDTGYVKSLPADYILGQSLAPGEKVKSGHIIYVTINSP	-0.0167
HMVFLPDEIFRLKVIKAGEGPEQGVGYLDDGTMVVIEGARDRIGDELEVRVTSTLQTNAGKMIFTKFE	-0.186
HMGLDNEGFERLRQKITRLLSEEALPVKELVDSFASKMRQEVLETLAFLQQEGVIEEKNGKLFLK	0.0365
HMDAATDAIKAEVRALLEMANAQGIDTESIMLEAHEQTRNATEQDYYEAAKSALEAAIAGSNRDR	0.0377
HMENLRLSELTVERGHRLAGRTLADIASAPNSPKYLIVLIQRGQETVIPTGSTVILPGDVLILAQS	-0.605
HMKRISDEDLLVMRRIDEVHTYHPTWGYRTITRILRRDDHLLINPKKVRRIMRDMGIYTIYPK	-0.039
HMRLSPTMVETLIAMLNRNAYPAYENNSRTFASLEERGLIQPDIEGNWSLTDTGHQTALKLLK	0.0915
HMKSLLSRREQEVLELVSRGFSYSEIAELKNLSVHTIQTHIKSLYGKLEVHSKMEAVLEATRMGLLPQ	-1.8
HMKSATGKIPDFISDLPVDEFVRELIVTNAFQPLNKFKEVQNHIGSALKIYVDELTEKRANGTVHILYSHK	0.077
HMAQASEPMLALIRLKWWEEQINSPVKGDSLPLLSQLNSHISAGYLSRSQVTSLIQRWQDYA	-0.787

Sequence	soluble fraction (log2)
HMKITININIETLSHHIKQSGVPLGRLQESVPDYNEIVTGNKSPTYQQLEKISKLIRVPLGLLVIESPL	0.268
HMAPEKLVHELVGLSLRAGNLDLLAATLSAHKTVLSKESTAEYVKAGLAIEPNHLPLRVLAEQDLGWS	-0.57
HMRQSKMREAILAAVSAQKLEISDLHVWRIGEQRYAAIIGLATTQAESVSALRDSLAQMDKLVHLTIDQ	-1.89
HMKNDKLLIFMELKGISRTQLSKSTGIPASTLGRIINGDVQKIKAVYMEAIANALDTSIHTIFDV	-1.27
HMTELVIPDYFSKALAKNKKAKQVFEAFAYSHRKEYLQWITEAKTEETRNKRMATAIEWIAEGKGRNWKYA	-1.69
HMYMKTITEQFGERLKKIRTQKSLSQEQLSYLADIDRSYISDVERGARNISLENIYKLASALNIPPYLVLL	-0.273
HMRPTDVLNYDESMRILNFSNNRVGFKHLMDAKGIEQVIFKNRKIGYRKSEILALKSELEAEQK	-0.341
HMQNELAEARSQLAERKNIDQAKLILMKKRNISEPEAYKLLRSHAMQTNRRVAEVAESIITAESLLG	0.0394
HMPARTANEEAIRKYLLNHDSITRKETQALLKTGQSAAGRILKEMVENGWLARIGNGRSTGYELR	-0.034
HMNMENIADKIGKIYESLPEDLKLMIKYRDIDDLTYDEIAVKADLPVGTVRSRLHRAREQLLKELEKN	-0.143
HMNEYSLVPDIYGMTYDDALSSLRNVGLDGRLALASTNEDLANADTRVVWQSKEAGSIIDKGSNVMFVID	0.0609
HMVDVNLLKYYVMESGKSLTDVAAAIGVTPATLHRKMSGESDFYRKEMQDIASYLGLDRDTIDRIFF	-1.01
HMDVSLVEQTQRDILEYISKNNSNAQLPKEQEFVGLLGVSRVVVREALSRLRALGIIETKRKKGTVVVVPE	-0.165
HMAVLFFVKRGERILGPTRLADLFQHAASGRLRANDLVGESPKGPWLPARQLDELEDAWASSRDATEAAAA	0.251
HMNQWQLLSEDGAILGTRVLYHPHETEQPFTRSLSGVKIPAHVQSVTIRAGDLVHGFGGREIQMQLPPIV	-0.0987
HMEDMMKALLDVVRAQHTATEGSEERPFDINDIIDMALNITGRPEEPEEQQELSDTIQKLAESLAPDIFP	-0.356
HMFTYEETIGKSADVYLTIPALKAGKGKIIISVRGSVHELDAMTNNAEKISTGAVVKIVRIEHGNILLVEN	-1.63
HMEENIKKDIEVPNIEGLTIDEAKKRLKEVNLNISIEDMEEKEGTEIITQQLPKAGIKVKEGVAIIAY	0.0824
HMDSVFGVVTSSDGVKLRKEASTISKVLTVLPYGTEVDVDRIGSEWIRIVTDGGQKGYVSADYLAVREGER	0.206
HMSVDAMDEANERKMAKTFNMIVLGGLLKIRPIVSIESVIKALRKTLPERHHHLIPMNEEAIHIGMDII	0.0597
HMISKTFEINEDNINNRLDIFLANQFDNLSRGIVQKLIESHSVSVSGNFVEKDYKLKLGDIIDVEINLS	-0.486
HMEEAQWEFKWENTDSAEIHGPHSSSEMLKWQENSFFAKGVYVRKVGGDTTDFTDGKRIDFDLY	-0.822
HMKPNEYVSGETFPYLGKNYRLKVLHGSENSVRLKGGYFITTISNRDSQLSTVKSLLEDWYQTHADK	0.0439
HMNEWVSVEERLPTDERPVLAFIGYADTMNGFITTSYYFRFDPDPHWLGEGLIPVGLKTLFWMPLPAP	-0.0149
HMHVSIAENIRRIRTQHDMTQEEFGKVAAVSAMAVSQWENGRAVPRMGAVQRIADYFNISKGEVID	-0.543
